Measurements reported in publication PMC3072757 (Journal of molecular biology, 2010).
Where two headings read alike, the source gives them in different places.

Columns and labels:
SEC [1] = target: the molecule itself; experiment: SEC
SEC [2] = target: the molecule itself; experiment: SEC; remark: listed apart in the source

Protein | binding result (SEC [1]) | binding result (SEC [2])
Recombinant wild-type human αB-crystallin (natural protein, UniProt P02511 1-175, looked up) MDIAIHHPWIRRPFFPFHSPSRLFDQFFGEHLLESDLFPTSTSLSPFYLRPPSFLRAPSWFDTGLSEMRLEKDRFSVNLDVKHFSPEELKVKVLGDVIEVHGKHEERQDEHGFISREFHRKYRIPADVDPLTITSSLSSDGVLTVNGPRKQVSGPERTIPITREEKPAVTAAPKK | binds | –
W9F/W60F αB-Crys (natural protein, human, UniProt P02511 1-175, looked up) MDIAIHHPFIRRPFFPFHSPSRLFDQFFGEHLLESDLFPTSTSLSPFYLRPPSFLRAPSFFDTGLSEMRLEKDRFSVNLDVKHFSPEELKVKVLGDVIEVHGKHEERQDEHGFISREFHRKYRIPADVDPLTITSSLSSDGVLTVNGPRKQVSGPERTIPITREEKPAVTAAPKK | – | binds
